Legend:
human IL-1R1 = molecular target: T1, human IL-1R1 (human, UniProt P14778 18-336, limits assumed); assay: BLI (Fortebio Octet), antibody injected over antigen surface
T1 construct: also called IL-1RI
T1 sequence (looked up): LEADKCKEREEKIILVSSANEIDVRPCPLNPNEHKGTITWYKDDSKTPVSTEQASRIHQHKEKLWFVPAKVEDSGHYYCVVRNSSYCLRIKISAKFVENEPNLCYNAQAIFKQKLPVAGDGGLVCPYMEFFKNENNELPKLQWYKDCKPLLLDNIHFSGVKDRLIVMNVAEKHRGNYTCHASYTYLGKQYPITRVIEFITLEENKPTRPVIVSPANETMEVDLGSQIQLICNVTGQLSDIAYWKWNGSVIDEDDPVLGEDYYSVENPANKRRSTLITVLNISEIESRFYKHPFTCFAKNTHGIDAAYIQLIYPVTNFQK
Method: (§1) B) Molecular selectivity over mouse IL-36R and human IL-1R1 The mouse and chimeric anti-IL-36R antibodies were also injected over either a mouse IL-36R or a human IL-1R1 surface at a concentration of 100 nM. The binding signal to mouse IL-36R and to human IL-1R1 for these antibodies measured using the Fortebio Octet (Fortebio, Menlo Park, Calif.) is zero, which indicates these antibodies selectively bind to human IL-36R.

mouse IL-36R = molecular target: T2, mouse IL-36R (mouse, UniProt Q9ERS7 22-338); assay: as above
T2 sequence (looked up): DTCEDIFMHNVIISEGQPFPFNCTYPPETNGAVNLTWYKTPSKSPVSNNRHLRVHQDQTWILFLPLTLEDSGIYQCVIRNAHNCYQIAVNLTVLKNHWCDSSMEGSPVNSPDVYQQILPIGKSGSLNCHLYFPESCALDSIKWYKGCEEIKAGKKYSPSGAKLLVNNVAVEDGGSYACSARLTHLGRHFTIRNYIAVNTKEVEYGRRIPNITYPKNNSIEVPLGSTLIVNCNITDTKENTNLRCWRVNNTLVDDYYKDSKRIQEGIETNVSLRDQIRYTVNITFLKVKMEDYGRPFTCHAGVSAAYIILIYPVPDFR
Method: as §1

[1] = molecular target: T3, recombinant human IL-36R (ECD) (human, UniProt Q9HB29 20-332); assay: SPR (ProteOn), recombinant human IL-36R at 7 surface densities, global fit
T3 construct: range 20-332; also called IL-1RL2; IL-1Rrp2
T3 sequence (looked up): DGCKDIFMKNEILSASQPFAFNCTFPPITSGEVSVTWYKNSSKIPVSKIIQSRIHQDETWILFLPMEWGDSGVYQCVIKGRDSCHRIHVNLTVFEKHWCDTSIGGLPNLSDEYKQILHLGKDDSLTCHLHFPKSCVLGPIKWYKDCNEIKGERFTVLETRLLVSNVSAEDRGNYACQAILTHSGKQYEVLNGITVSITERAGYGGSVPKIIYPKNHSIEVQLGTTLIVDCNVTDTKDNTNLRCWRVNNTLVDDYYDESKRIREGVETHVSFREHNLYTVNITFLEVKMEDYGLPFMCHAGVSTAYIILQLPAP
Method: A) Kinetics and binding affinities of anti-IL-36R antibodies binding to recombinant human IL-36R were measured using the Proteon (Bio-Rad, Hercules, Calif.) using material generated from hybridoma following single column purification. […] The binding affinities of the mouse antibodies to human IL-36R run at 7 different surface densities (globally fit) is shown in Table 1. Binding of the chimeric anti-IL36R IgGs is equivalent to the respective mouse leads.

human IL-36R on cells [2] = molecular target: T4, human IL-36R on cells (human, UniProt Q9HB29 20-575); assay: cell-based or functional assay
T4 sequence (looked up): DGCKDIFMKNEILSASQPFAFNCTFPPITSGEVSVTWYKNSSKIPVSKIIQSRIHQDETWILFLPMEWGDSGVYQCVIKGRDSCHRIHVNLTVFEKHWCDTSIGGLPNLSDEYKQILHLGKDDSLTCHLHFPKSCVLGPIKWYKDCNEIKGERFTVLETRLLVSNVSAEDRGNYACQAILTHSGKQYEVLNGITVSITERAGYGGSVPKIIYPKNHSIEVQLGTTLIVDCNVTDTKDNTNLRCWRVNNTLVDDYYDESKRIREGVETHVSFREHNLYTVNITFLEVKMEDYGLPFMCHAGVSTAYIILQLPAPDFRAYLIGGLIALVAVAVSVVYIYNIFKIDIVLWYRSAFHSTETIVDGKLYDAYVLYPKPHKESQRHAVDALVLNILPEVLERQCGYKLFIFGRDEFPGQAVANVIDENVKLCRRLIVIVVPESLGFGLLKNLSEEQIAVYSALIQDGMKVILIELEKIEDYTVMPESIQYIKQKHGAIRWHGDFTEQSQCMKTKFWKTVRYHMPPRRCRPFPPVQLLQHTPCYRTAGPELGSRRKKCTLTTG

[3] = molecular target: cynomolgus IL-36R on BaF/3 cells (cynomolgus, UniProt A0A2K5WSK9 20-558); assay: cell-based or functional assay
human IL-36R on cells [4] = molecular target: T4, human IL-36R on cells; assay: cell-based or functional assay; remark: listed apart in the source
human IL-36R on cells [5] = molecular target: T4, human IL-36R on cells; assay: flow cytometry, HEK293 cells transfected with full-length human IL-36R
Method: HEK293 cells transfected with full-length human IL-36R or NCI/ADR-RES cells were passaged for 24 hours prior to staining. Cells were removed from flasks by rinsing with 10 ml of 5 mM EDTA in PBS, and then incubated at 37° C. for 10 min with an additional 10 ml of 5 mM EDTA and 2.5 ml of Accumax to declump/disperse cells. Antibodies were then diluted to specified concentrations in PBS+2% BSA, and cells incubated for 20 min at room temperature. Excess antibody was then washed by adding 200 μl of PBS and then centrifuged. Secondary reagent was then added at 50 μl per well and cells are incubated for 15 min at room temperature and then washed as above. Cells were resuspended in 200 μl PBS and analyzed by flow cytometry.

[6] = molecular target: T3, recombinant human IL-36R (ECD); assay: SPR (ProteOn), single IL-36R surface coat concentration
Method: A) Kinetics and binding affinities of anti-IL-36R antibodies binding to recombinant human IL-36R were measured using the Proteon (Bio-Rad, Hercules, Calif.) using material generated from hybridoma following single column purification. […] Binding of the chimeric anti-IL36R IgGs is equivalent to the respective mouse leads.

Chain of cynomolgus IL-36R on BaF/3 cells (A0A2K5WSK9 entry or part of it): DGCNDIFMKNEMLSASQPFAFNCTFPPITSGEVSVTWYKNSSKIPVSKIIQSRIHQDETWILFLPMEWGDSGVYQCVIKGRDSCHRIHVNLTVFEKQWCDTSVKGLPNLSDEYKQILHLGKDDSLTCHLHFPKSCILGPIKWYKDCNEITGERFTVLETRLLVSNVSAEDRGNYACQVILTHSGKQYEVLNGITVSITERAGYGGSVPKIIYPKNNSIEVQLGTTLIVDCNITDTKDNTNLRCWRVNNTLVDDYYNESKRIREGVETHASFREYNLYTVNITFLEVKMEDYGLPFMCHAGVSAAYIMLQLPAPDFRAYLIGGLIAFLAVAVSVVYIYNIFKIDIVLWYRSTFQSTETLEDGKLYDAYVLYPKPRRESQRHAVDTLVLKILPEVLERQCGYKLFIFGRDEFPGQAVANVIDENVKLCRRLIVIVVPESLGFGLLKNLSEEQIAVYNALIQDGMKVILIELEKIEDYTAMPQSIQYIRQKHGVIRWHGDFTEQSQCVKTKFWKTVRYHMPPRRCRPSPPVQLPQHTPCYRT

binding result (human IL-1R1): no binding (tested: 100 nM)
binding result (mouse IL-36R): no binding (tested: 100 nM)
Kd [1]: 9 pM
IC90, IL-8 release, human primary keratinocytes (NHK), trun-IL-36a (human IL-36R on cells [2]): 1500 pM
IC90, IL-8 release, human primary keratinocytes (NHK), trun-IL-36b (human IL-36R on cells [2]): 3000 pM
IC90, IL-8 release, human primary keratinocytes (NHK), trun-IL-36g (human IL-36R on cells [2]): 800 pM
IC90, pNFκB, human primary keratinocytes (NHK), trun-IL-36a (human IL-36R on cells [2]): 1.8 nM
IC90, pNFκB, human primary keratinocytes (NHK), trun-IL-36b (human IL-36R on cells [2]): 2.3 nM
IC90, pNFκB, human primary keratinocytes (NHK), trun-IL-36g (human IL-36R on cells [2]): 0.8 nM
IC90, pNFκB, BaF/3 cynomolgus IL-36R cells, trun-IL-36a [3]: > 4000 nM
IC90, pNFκB, BaF/3 cynomolgus IL-36R cells, trun-IL-36b [3]: > 333 nM
IC90, pNFκB, BaF/3 cynomolgus IL-36R cells, trun-IL-36g [3]: > 333 nM
IC90, GM-CSF release, NCI/ADR-RES cells, trun-IL-36a (human IL-36R on cells [4]): 800 pM
IC90, GM-CSF release, NCI/ADR-RES cells, trun-IL-36b (human IL-36R on cells [4]): 600 pM
IC90, GM-CSF release, NCI/ADR-RES cells, trun-IL-36g (human IL-36R on cells [4]): 500 pM
IC90, IL-6 release, NCI/ADR-RES cells, trun-IL-36a (human IL-36R on cells [4]): 800 pM
IC90, IL-6 release, NCI/ADR-RES cells, trun-IL-36b (human IL-36R on cells [4]): 500 pM
IC90, IL-6 release, NCI/ADR-RES cells, trun-IL-36g (human IL-36R on cells [4]): 300 pM
IC90, IL-8 release, NCI/ADR-RES cells, trun-IL-36a (human IL-36R on cells [4]): 600 pM
IC90, IL-8 release, NCI/ADR-RES cells, trun-IL-36b (human IL-36R on cells [4]): 600 pM
IC90, IL-8 release, NCI/ADR-RES cells, trun-IL-36g (human IL-36R on cells [4]): 500 pM
IC90, pNFκB, NCI/ADR-RES cells, trun-IL-36a (human IL-36R on cells [4]): 1.7 nM
IC90, pNFκB, NCI/ADR-RES cells, trun-IL-36b (human IL-36R on cells [4]): 1.3 nM
IC90, pNFκB, NCI/ADR-RES cells, trun-IL-36g (human IL-36R on cells [4]): 1.1 nM
EC50 (human IL-36R on cells [5]): 475 pM
Kd [6]: < 100 pM
B1: antibody 33D10 (antibody, V domains shown)
VH: QVQLQQSGTELLKPGASVKLSCKASGNTVTSYWMHWVKQRPGQGLEWIGEILPSTGRTNYNENFKGKAMLTVDKSSSTAYMQLSSLASEDSAVYYCTIVYFGNPWFAYWGQGTLVTVSA
VL: QIVLTQSPAIMSASLGERVTMTCTASSSVSSSYLHWYQKKPGSSPKLWVYSTSNLASGVPVRFSGSGSGTSYSLTISSMEAEDAATYYCHQHHRSPVTFGSGTKLEMK
notes: Mouse monoclonal from hybridoma; also called 33D10B12; Mouse 33D10

From patent US20200231684A1 (published 2020)
